Among the data in PMC10786891, “Massively parallel profiling of RNA-targeting CRISPR-Cas13d” are Kd values, retold here.

The labels stand for the following.
T1: EsCas13d, nuclease-dead (Eubacterium siraeum, UniProt B0MS50, R295A;H300A;R849A;H854A)
T1 sequence: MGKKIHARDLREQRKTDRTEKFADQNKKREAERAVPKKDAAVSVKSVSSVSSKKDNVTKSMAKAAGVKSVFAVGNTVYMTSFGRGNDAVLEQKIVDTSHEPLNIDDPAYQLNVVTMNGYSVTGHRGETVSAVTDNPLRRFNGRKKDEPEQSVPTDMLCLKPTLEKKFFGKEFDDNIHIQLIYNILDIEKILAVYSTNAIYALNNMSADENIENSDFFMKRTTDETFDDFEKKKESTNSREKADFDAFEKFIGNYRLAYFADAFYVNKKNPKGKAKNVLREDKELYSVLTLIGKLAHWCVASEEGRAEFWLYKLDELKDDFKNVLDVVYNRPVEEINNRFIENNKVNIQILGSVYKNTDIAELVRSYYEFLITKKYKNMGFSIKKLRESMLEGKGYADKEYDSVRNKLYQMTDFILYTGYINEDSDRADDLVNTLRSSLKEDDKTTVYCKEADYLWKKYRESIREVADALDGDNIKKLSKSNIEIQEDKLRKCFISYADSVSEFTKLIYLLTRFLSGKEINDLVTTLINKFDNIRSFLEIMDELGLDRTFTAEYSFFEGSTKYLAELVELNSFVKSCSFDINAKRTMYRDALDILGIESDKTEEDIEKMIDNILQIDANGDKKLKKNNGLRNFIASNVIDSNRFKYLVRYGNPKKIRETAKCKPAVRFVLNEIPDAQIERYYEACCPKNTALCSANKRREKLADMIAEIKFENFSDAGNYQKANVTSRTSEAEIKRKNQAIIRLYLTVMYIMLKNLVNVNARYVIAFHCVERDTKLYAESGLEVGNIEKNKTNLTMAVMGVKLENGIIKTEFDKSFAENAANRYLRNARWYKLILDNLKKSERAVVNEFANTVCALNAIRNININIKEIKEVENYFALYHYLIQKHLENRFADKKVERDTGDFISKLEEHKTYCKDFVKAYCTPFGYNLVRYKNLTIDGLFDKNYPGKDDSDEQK

B1: target 1 insC 3' of 15,insG 3' of 6 (mixed)
RNA 1: CACCCGUGCAAAAAUGCAGGGGUCUAAAACUGAGCGGAUAACCUCUCUAUGG
RNA 2: GGGAAUGGAUCCACAUCUACGAAUUCGUACCAUAGAGCAGGUUAUCCGGCUCACCGAGAUCGGAAGAGCACACGU
B2: target 1 insG 3' of 18,insC 3' of 17 (mixed)
RNA 1: B1 RNA 1
RNA 2: GGGAAUGGAUCCACAUCUACGAAUUCGUACCAUAGGCAGAGGUUAUCCGCUCACCGAGAUCGGAAGAGCACACGU
B3: target 1 insU 3' of 20,insC 3' of 13 (mixed)
RNA 1: B1 RNA 1
RNA 2: B2 RNA 2 with A34U, G35A, C37A, A38G, G39A, A40G, G41C
B4: target 1 del4,del14 (mixed)
RNA 1: B1 RNA 1
RNA 2: GGGAAUGGAUCCACAUCUACGAAUUCGUACCAUAGAGGGUUAUCCGUCACCGAGAUCGGAAGAGCACACGU
B5: target 1 insG 3' of 14,insC 3' of 12 (mixed)
RNA 1: B1 RNA 1
RNA 2: B2 RNA 2 with G36A, C37G, A40G, G42C
B6: target 1 insA 3' of 5,insU 3' of 4 (mixed)
RNA 1: B1 RNA 1
RNA 2: GGGAAUGGAUCCACAUCUACGAAUUCGUACCAUAGAGAGGUUAUCCGACUUCACCGAGAUCGGAAGAGCACACGU
B7: target 1 insU 3' of 21,insG 3' of 6 (mixed)
RNA 1: B1 RNA 1
RNA 2: B1 RNA 2 with A32U, U33A, A34U, G35A, A36G, G37A, C38G
B8: target 1 insG 3' of 18,insC 3' of 12 (mixed)
RNA 1: B1 RNA 1
RNA 2: B2 RNA 2 with C37A, A38G, G39A, A40G, G42C
B9: target 1 insG 3' of 6,insA 3' of 5 (mixed)
RNA 1: B1 RNA 1
RNA 2: B6 RNA 2 with A48G, C49A, U50C
B10: target 1 C7A,G15C (mixed)
RNA 1: B1 RNA 1
RNA 2: GGGAAUGGAUCCACAUCUACGAAUUCGUACCAUAGACAGGUUAUACGCUCACCGAGAUCGGAAGAGCACACGU
B11: target 1 C6U,G12A (mixed)
RNA 1: B1 RNA 1
RNA 2: B10 RNA 2 with C37G, G40A, A45C, C46U
B12: target 1 insA 3' of 17,insC 3' of 12 (mixed)
RNA 1: B1 RNA 1
RNA 2: B2 RNA 2 with G36A, C37A, A38G, G39A, A40G, G42C
B13: target 1 insG 3' of 18,insG 3' of 3 (mixed)
RNA 1: B1 RNA 1
RNA 2: B1 RNA 2 with A36G, G37A, C38G, G49C, C50U, U51G
B14: target 1 U10C,A16G (mixed)
RNA 1: B1 RNA 1
RNA 2: B10 RNA 2 with A36G, C37G, U42C, A45C
B15: target 1 C4G,C6G (mixed)
RNA 1: B1 RNA 1
RNA 2: B10 RNA 2 with C37G, A45C, C46G, C48G
B16: target 1 insC 3' of 10,insA 3' of 7 (mixed)
RNA 1: B1 RNA 1
RNA 2: B1 RNA 2 with C38A, A39G, G41U, U43C, C47A, G48C
B17: target 1 insC 3' of 14,insG 3' of 3 (mixed)
RNA 1: B1 RNA 1
RNA 2: B1 RNA 2 with C38A, A39C, G49C, C50U, U51G
B18: target 1 insC 3' of 18,insG 3' of 16 (mixed)
RNA 1: B1 RNA 1
RNA 2: B2 RNA 2 with G35C, C37A, A38G
B19: target 1 U3G,G17U (mixed)
RNA 1: B1 RNA 1
RNA 2: B10 RNA 2 with G35U, C37G, A45C, U49G
B20: target 1 insG 3' of 19,insU 3' of 5 (mixed)
RNA 1: B1 RNA 1
RNA 2: B1 RNA 2 with A34G, G35A, A36G, G37A, C38G, G49U
B21: target 1 insA 3' of 12 (mixed)
RNA 1: B1 RNA 1
RNA 2: GGGAAUGGAUCCACAUCUACGAAUUCGUACCAUAGAGAGGAUUAUCCGCUCACCGAGAUCGGAAGAGCACACGU
B22: target 1 G12A,U19G (mixed)
RNA 1: B1 RNA 1
RNA 2: B10 RNA 2 with U33G, C37G, G40A, A45C
B23: target 1 G5U,C7G (mixed)
RNA 1: B1 RNA 1
RNA 2: B10 RNA 2 with C37G, A45G, G47U
B24: target 1 insA 3' of 8,insG 3' of 1 (mixed)
RNA 1: B1 RNA 1
RNA 2: B6 RNA 2 with C45A, G47C, A48G, U51C, C52A, A53G
B25: target 1 C7G,C22A (mixed)
RNA 1: B1 RNA 1
RNA 2: B10 RNA 2 with C30A, C37G, A45G
B26: target 1 insU 3' of 15,insU 3' of 13 (mixed)
RNA 1: B1 RNA 1
RNA 2: B2 RNA 2 with G36A, C37G, A38U, G39A, A40G, G41U
B27: target 1 insU 3' of 7,insU 3' of 7 (mixed)
RNA 1: B1 RNA 1
RNA 2: B6 RNA 2 with C46U, G47U, A48C, C49G, U50C

Numbering of substitutions follows the chain as printed. Names and notes keep the numbering of the source.

The target in the data set is T1, EsCas13d, nuclease-dead. Nature of the data set: crRNA (strand 1, pre-loaded); Mg2+; 40 mM Tris-HCl pH 7.5, 150 mM NaCl, 6 mM MgCl2, 1 mM DTT, 0.1% Tween-20, 0.2 mg/ml BSA; 25 C; 10 min per concentration, then washed. The conditions noted are these: tags: His6-TwinStrep-SUMO cleaved; N-terminal SNAP kept (SNAP-Surface 488); label: 3' end held by stalled T7 RNA polymerase.
For B1, the Kd stood at 22.1 ± 0.9 nM. To B2 belongs 89 ± 32 nM; to B3, 28 ± 3 nM; to B4, 84 ± 32 nM. B5 registered a Kd of 16.7 ± 0.9 nM. For B6 the value was 9.8 ± 1 nM; for B7, 28.1 ± 3 nM; for B8, roughly 80 nM. B9 came in with a Kd of 19.3 ± 1.8 nM. To B10 belongs 84 ± 25 nM; to B11, 11.1 ± 0.5 nM; to B12, 23 ± 4 nM. For B13 the value was 40 ± 2.7 nM. Take B14: the Kd stood at 62 ± 7 nM. For B15 the value was 3.71 ± 0.17 nM; for B16, 11.2 ± 0.6 nM. To B17 belongs 25.6 ± 2.7 nM; to B18, 70 ± 13 nM; to B19, 20.8 ± 1.6 nM.

As to B20, the affinity, expressed as Kd, was 86 ± 18 nM. To B21 belongs 29.5 ± 2.9 nM; to B22, 54 ± 15 nM; to B23, 16.8 ± 0.9 nM. To B24 belongs 18.3 ± 0.8 nM. For B25 the value was 14.2 ± 0.6 nM. In the case of B26, the Kd is 20 ± 7 nM. To B27 belongs 7.9 ± 0.4 nM.

Usually Kd stands for the free concentration of one partner at which half of the binding sites on the other are occupied at equilibrium, for simple one-to-one binding. Read a low Kd as higher affinity.
